Test results: PMC9359538

How the values were obtained:
[1] = biological target: HSV-1 gE expressed from recombinant adenovirus (HSV-1) (UniProt P04488); assay: co-IP; lysates of 293 cells infected with adenovirus expressing gE (48 h) or with HSV-1; IP with anti-gE Ab; western blot for Anx-A1; band ratio Anx-A1/gE
[2] = biological target: HSV-1 glycoprotein E (HSV-1) (UniProt P04488); assay: as above

B1: annexin A1 (natural protein)
chain: MAMVSEFLKQAWFIENEEQEYVQTVKSSKGGPGSAVSPYPTFNPSSDVAALHKAIMVKGVDEATIIDILTKRNNAQRQQIKAAYLQETGKPLDETLKKALTGHLEEVVLALLKTPAQFDADELRAAMKGLGTDEDTLIEILASRTNKEIRDINRVYREELKRDLAKDITSDTSGDFRNALLSLAKGDRSEDFGVNEDLADSDARALYEAGERRKGTDVNVFNTILTTRSYPQLRRVFQKYTKYSKHDMNKVLDLELKGDIEKCLTAIVKCATSKPAFFAEKLHQAMKGVGTRHKALIRIMVSRSEIDMNDIKAFYQKMYGISLCQAILDETKGDYEKILVALCGGN
B1 was tested, and the Anx-A1/gE ratio in the co-precipitate [1] was 0.44 and the Anx-A1/gE ratio in the co-precipitate [2] was 0.51.
